Results from the supplement of paper PMC9170038.

Tested on: MS2 coat protein
Assay: apparent KD of MS2 coat protein; designed switch direction (-1 OFF switch, 1 ON switch): -1; higher = weaker reporter binding
Procedure, shortened: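 RNA switches sharing common flanks were transcribed by stalled E. coli RNA polymerase on Illumina chips. A doubling series of SNAP-549-labelled MS2 coat protein, from 0.7 or 1.5 nM to 3 µM, was applied in Tris-HCl pH 7.5 buffer with KCl, MgCl2, BSA, DTT, tRNA and Tween-20. Each step lasted 0.8–1.5 h at the bottom of the series and 10–20 min at the top. Normalised cluster fluorescence was curve-fitted, giving apparent KD as the per-design median over clusters.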

[1] = input ligand: microRNA oligo, concentration not stated
[2] = Eterna round: R95, input ligand: FMN 200 uM
[3] = Eterna round: R95, input ligand: microRNA oligo, concentration not stated
[4] = Eterna round: R95, input ligand: none

Sequence	apparent KD of MS2 coat protein (input ligand: FMN 200 uM)	apparent KD of MS2 coat protein [1]	apparent KD of MS2 coat protein (input ligand: none)	apparent KD of MS2 coat protein [2]	apparent KD of MS2 coat protein [3]	apparent KD of MS2 coat protein [4]
GCGCCAUCGUGAGAUGGCGUAAUUACAUGAGGAUCACCCAUGUAGGAUAUCGAUUGCUUUGCAGUCGAGAAGGACAUGAUAAUU [JL ENG3 3.80] (Eterna round: R96, puzzle: Exclusion NG 3)	104 nM	25 nM	33.7 nM	–	–	–
CAGCUGAAAGUGAGGAUAUCUAGAGCCUCGGCUCUAGAGAAGGCACAUGAGGAUCACCCAUGUCUCAACAGCUG [BmEx4/1-A2] (Eterna round: R97, puzzle: Brourd's mod of Exclusion 4)	67.1 nM	–	19.6 nM	–	–	–
CCUCAGUAAGGAUAUCAGCUUAAGGAGGUGGUAAAGAGAGCUGAGAAGGUACAUGAGGAUCACCCAUGUUAAAA [Zatite] (puzzle: Exclusion 4)	–	–	–	64.4 nM	44.9 nM	50.2 nM
GGCAUGUAAGGAUAUCUAUCGGUGAGAAAACCAAUUGGGCAAGAGAAGGUACAUGAGGAUCACCCAUGUGGACC [Eternabot (L1) Solution 9] (Eterna round: R97, puzzle: Exclusion 4)	135 nM	–	44 nM	–	–	–
UCGCUGCGAGGAUAUACGUGCGCGCGCUCGCGUUCGCGCGUACAUGAGGAUCACCCAUGUAGAAGGCGCGCUGC [Apr-15 SS2-5] (puzzle: Exclusion 2)	–	–	–	–	11.1 nM	–
CGCGACUCAGGAUAUACAUGAGGAUCACCCAUGUGGAACUACUGGGUCGAUAAAAGGUGUAGAAGGGAGGAAAU [Veveesla] (puzzle: Exclusion 3)	–	–	–	14.3 nM	10.5 nM	13.5 nM
CUUUAGCUAGGAUAUACAUGAGGAUCACCCAUGUUAGCGGUCCAUUGGGCCGCGGGUUGUAGAAGGAGCAUUAA [Azabeso] (puzzle: Exclusion 3)	–	–	–	–	25.3 nM	–
CUUUUGUGAGGAUAUCAGUAGUAAAUAAUUAAAAUUACUACUGAGAAGGCACAUGAGGAUCACCCAUGUUCCUC [salish99_ex3_r3_080] (puzzle: Exclusion 4)	–	–	–	–	40.3 nM	–
GUAUAACUACACGGGCUCAACAUGAGGAUCACCCAUGUCAUAUACGCAAGCUUUUUGCUUGUCUUAUCAGGCCGUGA [Ceatxe] (puzzle: Sensor v3, turn-off variant 1)	–	–	–	13.5 nM	16.5 nM	12.4 nM
GGGAGGAGUGUAGGAUAUCCGACAAUCCUGUCAGGAGAAGGGCACCCUACUUGAGGAUCACCCAAGUCUCCGGGUGCUCAAGAA [Mutated MS2 EX1.15] (Eterna round: R96, puzzle: Exclusion NG 1)	9.33 nM	8.22 nM	13.2 nM	–	–	–
GGCGGACAUGAGGAUCACCCAUGUCAGGAUAUGGUGCGAUCGUCGAUAGACGAUAGCACCAGAAGGGACACGCC [Mat - Exclusion 1 - Eli Mod - D1] (Eterna round: R97, puzzle: Exclusion 1)	22.2 nM	–	19.8 nM	–	–	–
GCGUACUGAGGAUAUACAUGAGGAUCACCCAUGUAACACAGCAUAUAUAGAUAUUUUUGUAGAAGGCAGUAUGC [JR_Ex3_Sub057] (Eterna round: R97, puzzle: Exclusion 3)	40.2 nM	–	17.5 nM	–	–	–
GCACUGCGAGGAUAUACAUGAGGAUCACCCAUGUGUCGGCAGACAUGUUAUUUCUAAUGUAGAAGGCGCGUAAA [JR_Ex3_Sub002] (Eterna round: R97, puzzle: Exclusion 3)	340 nM	–	68.8 nM	–	–	–
UCCAGCAUACGGAGAUCCAACAUGAGGAUCACCCAUGUCUGGAAAGCUUUUUGCUUGUCUUAUCCGUCUCUGUGUGU [Design #7] (Eterna round: R97, puzzle: Sensor, turn-off variant 1)	32.7 nM	–	35.8 nM	–	–	–
AUUAUGUUAGGAUAUGCUUAUGGUGGAUAAUCGGAUAUGAUGCAGAAGGGACAUGAGGAUCACCCAUGUACUGA [EX4 #24] (Eterna round: R97, puzzle: Exclusion 4)	22.3 nM	–	22.7 nM	–	–	–
UAAACUUGCUUCCGAUCCUACAUGAGGAUCACCCAUGUGCUCGUCUUGUAUCGUACUGUGACGUUAGUCACGGUACG [mod my first] (Eterna round: R97, puzzle: Sensor, turn-off variant 1)	477 nM	–	464 nM	–	–	–
AAAUAGCAUGAGGAUAUUGGACUGUAUUCAGUACGAGAAGGCAUGACAUGAGGAUCACCCAUGUUUUGUUGGGA [EX6 #6] (Eterna round: R97, puzzle: Exclusion 6)	222 nM	–	67.5 nM	–	–	–
GAGCAGCGAGGAUAUACCUGGACCUGGUCCCAGGCCGAUCAACUUGAGGAUCACCCAAGUAGAAGGCGUGGCUC [Ceortiti] (Eterna round: R97, puzzle: Exclusion 2)	322 nM	–	401 nM	–	–	–

Sequence	apparent KD of MS2 coat protein (input ligand: FMN 200 uM)	apparent KD of MS2 coat protein [1]	apparent KD of MS2 coat protein (input ligand: none)	apparent KD of MS2 coat protein [2]	apparent KD of MS2 coat protein [3]	apparent KD of MS2 coat protein [4]
AUAAUUUAAGUGAGGAUAUACCUAUGGAAACAUAGGUAGAAGGCACAUGAGGAUCACCCAUGUUCCUAUACAUA [Fiskers BMX 4 - 3] (puzzle: Brourd's mod of Exclusion 4)	–	–	–	22.8 nM	12 nM	13.1 nM
AAGGGUGCUUUCAGAACGACAUGAGGAUCACCCAUGUAGACUGAGGAUAUCUACUUCUAAGGACGGGAGAAGGCAGUGUAAUGC [Ex NG3 #68] (Eterna round: R96, puzzle: Exclusion NG 3)	23.1 nM	19.5 nM	21.6 nM	–	–	–
UAGCAUUGCCAAAGGUAGUGCUUUACAUGAGGAUCACCCAUGUAGGAUAUGGUAGGCAAAGCUUACCAGAAGGACAUGAUAAUU [Mat - Exclusion NG 3 - Mod of JL - D12] (Eterna round: R96, puzzle: Exclusion NG 3)	167 nM	45.1 nM	56.1 nM	–	–	–
GAGAAUUCAUAGGAUAUCGUAUGGAUAAUUUAACGAGAAGGAUGAACAUGAGGAUCACCCAUGUGGUAUCAUGG [salish99_ex6_r3_002] (puzzle: Exclusion 6)	–	–	–	83.5 nM	87.5 nM	95 nM
GAUCAGCUUGUGAGGAUAUCCGGGCUUAAAGGCUAGGAGAAGGUACAUGAGGAUCACCCAUGUAGAGUCCUGGG [Zageesen] (puzzle: Brourd's mod of Exclusion 4)	–	–	–	–	50.4 nM	–
AUUGUUUAUGUAGGAUAUGCCUGGCGUGCCUUUGCAGAAGGACAUGAGGAUCACCCAUGUAACAUGAGGCUCACCCAUGUCGCU [salish99_ExNG1_r04_112] (Eterna round: R96, puzzle: Exclusion NG 1)	432 nM	220 nM	311 nM	–	–	–
CCGCAAAUGCAGGAUAUCGUAUCGGAAACGAUACGAGAAGGGUAAACAUGAGGAUCACCCAUGUUCCUUAACGG [Mat - Exclusion 6 - Eli Mod - D98] (puzzle: Exclusion 6)	–	–	–	–	16.3 nM	–
UUUGGGCCUGUGAGGAUAUCGGGUUUGAAAGGGCCCGAGAAGGCACAUGAGGAUCACCCAUGUAAGGGCCCGGG [-32.7, -30.6 kcal, A 23%, 5a-5abis] (Eterna round: R97, puzzle: Brourd's mod of Exclusion 4)	17.3 nM	–	19.5 nM	–	–	–
ACAUGAGGAUCACCCAUGUCUGGCUGGUCUGCUCCGGUUGUUGAGGAUAUAGUCCGGUGUUCGCGCUAGAAGGUGAGGGCUGGA [Aenatbe mod 40] (Eterna round: R96, puzzle: Exclusion NG 3)	137 nM	96.4 nM	131 nM	–	–	–
AAAUCGGAGGAGGAUAUUGUACAGGAAACGGUGCGAGAAGGUUUCACAUGAGGAUCACCCAUGUCAAAUAGCGA [EX6 #57] (Eterna round: R97, puzzle: Exclusion 6)	21.3 nM	–	21.2 nM	–	–	–
UUGUUGUAUGUAGGAUAUGCGUAUUGUUAUUAUGCAGAAGGACAUGAGGAUCACCCAUGUAUAUUAUUAUUAUAUAUUAUAUAU [Title] (Eterna round: R96, puzzle: Exclusion NG 1)	–	20.1 nM	–	–	–	–
UUGUUUUCCGCAGGAUAUGCUCCUCCAUUACUAGCAGAAGGGCGUUGAACAUGAGGAUCACCCAUGUAUGUAAUUGCUUAUUGC [JR_ExcNG1_Sub073] (Eterna round: R96, puzzle: Exclusion NG 1)	19.7 nM	14.8 nM	18.9 nM	–	–	–
CUGAGCAGACGGAGAUCCAACAUGAGGAUCACCCAUGUCUCAAAAGCUUUUUGCUUGUCUUAUCCUCCUCUGUUCAC [Esqutian] (puzzle: Sensor v3, turn-off variant 1)	–	–	–	14 nM	390 nM	12.3 nM
GGAUAUAACGUAGGAUAUCUGAGAAAUAGAUGAAGAGAAGGACGACAUGAGGAUCACCCAUGUGAUCUAUCAAUAUUAUACAUG [Prohibition 100 - Jieux - Exclusion NG 1] (Eterna round: R96, puzzle: Exclusion NG 1)	–	332 nM	–	–	–	–
GUGUAGGUAGGAUAUACAUGAGGAUCACCCAUGUGAAUAAGAUAGAAUAAGAUAAAGUGUAGAAGGGCUAGUGU [Excluse me!!! 13 - Jieux - Exclusion 3] (puzzle: Exclusion 3)	–	–	–	–	34.5 nM	–
UUCUUUAUACGAGGAUAUCAUACAUGAGGAUCACCCAUGUGGCUGGGUCUGUUUUUAUAUAAUAUUGAGAAGGCGUUUUUCUAU [JR_ExcNG2_Sub073] (Eterna round: R96, puzzle: Exclusion NG 2)	291 nM	79.8 nM	78.9 nM	–	–	–
AGGAGACAUGAGGAUCACCCAUGUAAGGAUAUGUAGGAGCAGCCGGCUGGUUCGCUCCGCAGAAGGUGCGCGGU [Eternabot (L2) Solution 11] (Eterna round: R97, puzzle: Exclusion 1)	49.3 nM	–	41.3 nM	–	–	–
